The values below come from US20210353708A1.

Experiment [1] has as its target recombinant BΔg protein (recombinant human brevican, enzymatically deglycosylated, His-tagged) (human) (UniProt Q96GW7). Description: BLI (Octet RED), steady state analysis.
Experiment [2] has the same target. Kind of experiment: BLI (Octet RED), His-tagged BΔg on Ni-NTA sensors, peptide in solution, steady state analysis.

Where no end group is shown, it is not given here. [ ]: non-standard residue; d: D form.

recombinant BΔg protein (recombinant human brevican, enzymatically deglycosylated, His-tagged) (human), sequence (Q96GW7 23-911, stated change not applied, form in doubt): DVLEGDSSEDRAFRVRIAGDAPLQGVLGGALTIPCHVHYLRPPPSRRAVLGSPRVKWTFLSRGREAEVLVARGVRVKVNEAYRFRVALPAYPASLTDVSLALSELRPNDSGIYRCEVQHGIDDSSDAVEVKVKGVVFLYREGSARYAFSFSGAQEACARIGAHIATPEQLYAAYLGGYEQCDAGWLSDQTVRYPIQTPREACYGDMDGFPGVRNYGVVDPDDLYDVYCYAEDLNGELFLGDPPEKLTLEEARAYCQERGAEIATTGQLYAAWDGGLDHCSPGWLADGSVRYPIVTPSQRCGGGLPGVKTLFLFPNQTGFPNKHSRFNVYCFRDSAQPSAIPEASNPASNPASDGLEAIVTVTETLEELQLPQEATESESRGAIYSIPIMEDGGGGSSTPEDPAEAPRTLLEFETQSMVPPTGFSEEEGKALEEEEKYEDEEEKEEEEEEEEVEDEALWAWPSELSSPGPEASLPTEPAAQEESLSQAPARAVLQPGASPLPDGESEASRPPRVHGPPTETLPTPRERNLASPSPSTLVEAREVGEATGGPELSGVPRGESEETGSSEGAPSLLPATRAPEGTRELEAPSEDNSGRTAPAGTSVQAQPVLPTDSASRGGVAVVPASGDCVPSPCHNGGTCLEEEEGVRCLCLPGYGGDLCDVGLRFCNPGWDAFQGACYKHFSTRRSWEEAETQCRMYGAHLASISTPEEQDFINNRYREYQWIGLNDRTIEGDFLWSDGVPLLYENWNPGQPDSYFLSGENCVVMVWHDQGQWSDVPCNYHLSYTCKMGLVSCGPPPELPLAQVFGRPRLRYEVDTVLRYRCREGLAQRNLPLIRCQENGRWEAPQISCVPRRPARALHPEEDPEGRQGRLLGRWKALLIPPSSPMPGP

B1: BTP-7 conjugated to a fluorescein dye (peptide)
peptide: [dT][dK][dW]G[dH][dV][dN][dK]
modifications: not fully specified (C-terminus); also: FITC on side chain of C-terminal Lys: own Lys8 or an added Lys, not given here
For the molecule B1, the fold lower binding affinity than the unlabeled BTP-7 in experiment [1] was greater than 10 fold. Also, the dissociation constant Kd – broadly, a measure of binding affinity in units of concentration – in experiment [2] came to 3800 nM.

B2: BTP-8, not labeled with a fluorophore (peptide)
peptide: [dT][dI][dR][dK][dL][dV][dR][dH]-NH2
modifications: N-terminus assumed
SMILES: CC[C@@H](C)[C@@H](NC(=O)[C@H](N)[C@H](C)O)C(=O)N[C@H](CCCNC(=N)N)C(=O)N[C@H](CCCCN)C(=O)N[C@H](CC(C)C)C(=O)N[C@@H](C(=O)N[C@H](CCCNC(=N)N)C(=O)N[C@H](Cc1c[nH]cn1)C(N)=O)C(C)C
Turning to B2, in experiment [2], the equilibrium dissociation constant (Kd) is 1570 nM.

B3: BTP-9, not labeled with a fluorophore (peptide)
peptide: [dA][dD][dR][dR][dQ][dR][dA][dI]-NH2
modifications: N-terminus assumed
SMILES: CC[C@@H](C)[C@@H](NC(=O)[C@@H](C)NC(=O)[C@@H](CCCNC(=N)N)NC(=O)[C@@H](CCC(N)=O)NC(=O)[C@@H](CCCNC(=N)N)NC(=O)[C@@H](CCCNC(=N)N)NC(=O)[C@@H](CC(=O)O)NC(=O)[C@@H](C)N)C(N)=O
On to B3, for which the equilibrium dissociation constant (Kd) in experiment [2] is 1500 nM.
